In publication PMC4927284:

Target: mutant (M97S, F110S) EndoBAR (endophilin Bin–Amphiphysin–Rvs domain of mouse endophilinA1) (mouse)
Assay: cross-linking

stoichiometry N: 2
Substance: mutant (M97S, F110S) EndoBAR (endophilin Bin–Amphiphysin–Rvs domain of mouse endophilinA1) (domain or fragment)
